According to a protein production outcome set (Wang et al. 2014):

Assay: label from the status in PepcDB records
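Note: failed if final PepcDB status was selected cloned or expressed and not failed if soluble or beyond.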

Protein production, not failed:
MLSRLRHRLLAVAAAAGLTGALLSFGAAPPADAAVPATIPLKITNNSARGDAVHIYNLGTSLTTGQQGWADENGTFHAWPAGGNPPTPAPDASIPGPAAGQTKTIRIPKLSGRIYFSYGQKLDFRLTTGGLVQPAVQNPSDPNRNILFNWSEYTLNDGGLWLNSTQVDMFSAPYTVGVQRADGGVTSAGQLKAGGYRGVFDALRAQPGWGGLIQTRPDGTVLRALAPLYGVETGALPASVMDDYINRVWQKYTTTTLTVTPFGDRPDTKYFGRVSGNVMNFTNTSGAVVTSFQKPDASSVFGCHRLLDAPNDQVRGPISRTLCAGFNRSTLLSNPNQPDPSAANFYRDPVTNHYARIIHERMADGKAYAFAFDDVGNHESLVHDGNPAEARLTLAPLDLEHHHHHH
MLTVIAEIRTRPGQHHRQAVLDQFAKIVPTVLKEEGCHGYAPMVDCAAGVSFQSMAPDSIVMIEQWESIAHLEAHLQTPHMKAYSEAVKGDVLEMNIRILQPGI
MLVNGKWTADWQPVQKADDHGRFVRQVSSFRNWITPDGSAGPTGTGGFAAEAGRYRLYVALICPWASRTLMARRLKGLDGLIPVTVVNPVMGTQGWEFGGHDDAEEDPLFGARHLHEIYTRAEPQFTGRATVPVLWDMKRDAMVNNESADILRMFDTAFEGLAPSDLRLYPAALAGEIDALNAQVYDRLNNGVYKAGFASTQEAYDEAVAGVFEMLDHLEYRLTGDYIFGGALTETDIRIFVTLIRFDAAYHGLFKTNRRQIADYPRLWAYMRRILARPGVRETVNMDHITRGYYSIKALNPSRIRPVGPAHIEAALRETAAGI
MLVRTLSALECTKVLTANRVGRLACAKDGQPYVVPLYYAYSDAHLYAFSMPGKKIEWMRANPRVSVQVDEHGQGRGWKSVVVDGRYEELPDLIGHKLQRDHAWSVLSKHTDWWEPGALKPVTPPTADSAPHVFFRILIEQVSGREASE

Protein production, failed:
MLSLLISVKKLFSSFLGILKKEDTRALFFLLATTLLSGTIFYSTVEKLSPLDSLYLSFMTLTTIGYGDVHPVTDLGKIFTMIYATVGLGIMAMFISVVAKSYLYSKQSHHHHHHKNKEHSAEKSSEK
MLSLLLILPVIGALIIGFFPGNIPAKQLRQITEVFAVLTLVWSLLVLFKFDVTDPQFQFQEYLPWIPQLGLNYSLAIDGLSLPLVILNNLLTGVAIYSIGPNVNRSRLYYGLILLINAGISGALLAQNLLLFIVFYELELIPFYLMIAIWGGEKRGYASMKFLLYTAFSGLLVLAAFLGMSLLSGSHSFDYNPEITQTFTESAQTILLILILLGFGIKIPLVPLHTWLPDAYTEASPATAILLGGILAKLGTYGIIRFGLQLFPQTWAQFAPVLAIIGTVTVLYGALSAIAQKDIKRMVAYSSIGHMGYILVAAAAGTELSVLGAVAQMVSHGLILALLFHLVGIVERKAGTRDLDVLNGLMNPIRGLPLTSALLITGGMASAGIPGLVGFAAEFIVFQGSFPTFPIPTLLCILASGLTAVYFVILLNRTCFGKLDNQRAYYPKVLASEMIPALVLTAIIFFLGVQPNYLVHWTQTTTNEMIAQLPHETSAIEQLAQGVTLP
MLSRLDQRSGGRSPIRAVRTRNSAMRTSRRAIVAFVLGVSALAVPALAFEGAPVNQKDATIPVVTTLPGAAGAVRSKVSPATQETSLSALQYAAEGGHPIAQWKLGRMYANGDGVAQDDVRAFEYFSRIANAHAEDSPSAPQAQIVANAFVALGRYYLSGIPNSKIKPDQDRAREMFSYAASYFGNADAQYDLARLYLKTPDASREDFRYGARWLGLAAQKGQHEAQALLGQMLFNGDRLPRQAARGLMWLTLARDSAGSEETWIKESYNRAFAKASDDDRAMCLQMLEQWVQGRRE
MLSTMQPTLATNYTTIPCYQLCYQHYATNLAPIIRSTGSMILNYAIIRLSLQQNLCYRKTCVRDTAQYDPPCNKIYTTGLCCSRTYKTLQAFFLDMSETPQKLREEAVKYFNETLDLMQKGENAEALESLRKAESSAQKAEDGPILFHILKVRGQLLQSLDMLEEALETYAFSLIMSEKLLSEDPENKLYTDTLHLNLNNLGNLGNAFQRMGNFPSSKQAYEIGIEICQNLLNSYPENEFYRMYAGNTLNNLGELLFTMGEPEEAKEKYEEALKTYSLLLKNSPEKPEYLSDTAMTLNNLGNLYSEKGQEAEAKENFEKALEILKKRSEKEPGNEKLREEIRITQEKLEAI
MLSVSWEYNFSFKKLNVPSFSVCRMLCGKLQNPLDHKKDEASHVKHASQGDVPFSGPLQVSKSNSFAWAKREKDDVCVRVHNRSLSRGYIPSLSGHSPAFNGKSDVESKINKDEKEDKTDSRGEESYEMVKRSMLKQWRQLERPDSFGASDEYHSQELSLGLYQRDEMAKKMGNNLVRP
MLSVVSPNRSTARAARTPFWRRAAVGLCLLGVAMSGPLAAQDPAQVNTFIGSKDDGNTYPGASAPFGLIQVSPIGAHYAGWRYDDPSIRGFGHSFLSGAGCWEQGGQVSVLPVTGRIGPGGDFDTNDAKAFDQKRYAARYTHDGEVGQAGYYKVRLTDYGGIDAEASALTRAATERYTFAPGADTGHVLVNVAQANDRHVVIGSQLQIVGDRVVEGKLTTQSFCGGHEYTTWFRLEFDRPFTAHGVWGEEGGVPGARHGMGGELKPNGAWLSFPLGKDKNARAVTVVSAISHVDAQGARSNLRADGMQGGKLLSLEQMRQRAQNGWRNALASMQVEGASNDDRSVAYTALYHALLQPLTGSDADGRYRGYDDAIHRADGWTYYEYFSLWDTYRSQNQLLALLQPTRARDIGRSLLAIQQQGGWLPRWGYANFDTNIMTGDPVTPFLVDLWRFGALQGNEAEAYAALRQNAFGQPPINSRHAGRSGNANYLANGFVQYDRAFPSKGMDVDPHHGGSATLEYALADCALAQMAQALGHGEDAAQLRKRGGNWHRVWDADVRDAETGFAGFPRPRLEDGSWYAPSDDHYSPRSEHGFHEGTAWQYQWLVQQDIPGMLQAMHGSQQAGKRLDAFFAYDDLLKDPLTAARTHWVVGPYSYYNQYRYNPNNEPDLHAPWMYTLIGQPWKTATVVRAAQQLFTNAPNGVTGNDDLGTMSAWYLFSALGLYPAVPGSGQFLLHAPRFKRVTLNLGNGKRLRIDAPGADGRALQYVDNVRWNGKAQPQVFLDWAQLQQGGTLAFALTKQAPTQGWGTQADALPASFCATPQAQ
MLTHHKNKLKTIEWTSYVWLAYLPYTIAAYIPVKSWHDWLWLLLVGGFLVLYILVVEKPHWRAVTMPAELVVTGLFAVFAANNFMIIFPGWQVSFLLGRRPKREFYGFALGYYAFLIGGCIRDYLQYPGVFGWHNGDVMGLVFPLLSPILAYTFSWSVERQRQLNQTNRRLKTIVERNERERIARDLHDTLGQSFSMITLKTELAKKLLVKAPEKVAPELDEIEQTSRQNLQLVREIVNNLHEQSLTEVLLAQTRNLAAVGVWTTTTGETQATKWPTTVQSCFAAVLVEAMTNVMRHAHAHEVRIDFVETAKIYQIKLKDDGKGGTLIRQGANGIAGMRTRLQAKQGTFAITSSRRGTQLILTLPKE
MLTHKTCQARKKMQVSFVIRDAEEKQHRNGVNALQLDANNGKLYSAGRDAIIRVWNTRTDSSEKYIQSMEHHNDWVNDIVLCCNGRNLISASCDTTVKVWNAQKGFCMSTLRTHRDYVQALAYAKDREQVASAGLDKAIFLWDVNTLTALTASNNTVTTSSLTGSKDSIYSLAMNPSGTVIVSGSTENILRIWDPRTCMRRMKLRGHTENVRCLVVSPDGNQVVSGSSDGTIKVWNLGQQRCVQTIHVHKEGVWSLLMSENFQYIISGSRDRNIIVTEMRNPSNKTLVCEEQAPVLSLGYNIDKTGVWATTWNSDIRCWKLPMYDRCTLNSSGGMDAQWTQGGTEVACIKGGAAIKECAVLNDKRYIITKDSQDQVVVYDVLRVVKKEQLGAVDFEAEVKKRNKQVYIPNWFTVDLKTGMPTIVLGQEEVDCFSAWVSIEAGLPECVDPTTEIKINYGKLLLEALLEYWTPPHSIPPNEMEPDMHGNGYFQVPKHTPVIFSEVGGRTVCRLLVRDAAGDSESTLLHETAPQWVTDVVIEKNIPKFLKIPFFLQPHPQMTKPERTKKDRLVANEFIQCRKVCEHVLEKVLNAETTPSGGNANNSLQNSQSDANSEGSQLPAEERIELWCNDVVVDPNMDLRTVRHFIWKQSTDLTFQYKTKQNFNYDGK
MLTLHIGGIGIGEPLWFICNILVSFIFSYKLFNSILHNNNISYIFALIYTFSPAMAVLTYSTSWETVLSYAFSPLILYLLYLTFNNLELKGLSFDLILISIFMYVYYFDTDVIMWEGILVVSMLIYLTISHTNRKNCS
MLTLPAPEPIAHMEVTSYRAGVQGGSGLWRGQAVYVKTLVSDDPDRVAMFHHEGAVAARLSHPLVTPLLAHTPNQLIFPLLRGGTLRDLVRCGPLDADAATQVTWGVLQAVSHLHGRGVTHHDLKPENVLLIGGQSQVEAVRLIDFGMSHAAGLPLDIHSGTRMGTPQFMAPEQFQGVRGDPRSDLYSVGVLLFDCLAGHPPYADALGWLVGISEERAAAPGPSALHPLMLRAIQRDRDSRPQSAAEMLAALADARQQLGLPELEHIAPEGQTAGENA
MLTRPMGEGYIQYLRLSKETTQPADSKIPGLWSSSVRPEFCCIYRVPDRLRKVNPEAYTPQMLLIGPLHHSKKAEALKRYKTDLRYLNYLNMELHKKKCLDSIADIYGDQPVKEFRRIIEINEKFIRDSYAESTIWINTKDFVEMILHDSVFILLFFIQTGSTLNFNKKEDILFNQSRLINATAILEDLILLENQLPYALLEKLFEPFSSNVNTKETFRDITLRAFRFEGKIKEEVRFQHFTDLFRCVRVSTLSLTEEQINIAKNEPPKSRKIMYNADKLDSAGVNFVNVDEENDLSLVITFKDGILKMPCFTVEDNTERVVRNLMALEQCHYPRTTFVCDYISFLDFLINTDQDVDLLAKKGIVKNWLGHQGSVTEMVNKLCLGLVDFGSHYSDIVENLNKHYDNRLNRSVGTLRRVYFKDLWTGTATIAAVVLLVLTLIQTVASILQVMMQNDNKSPPPPAPSRGL
MLVALITLAFIHFCALITPGPDFFLVSQTAVSRSRKEAMLVVAGITAGVMFWASLALMGLNIIFEKMAWLKQGLLIAGGLYLCWLGYQMLRSAFSKNQQEEVTTVELPKAPYLFFMKGLLTNLSNPKAVIYFGSVFSLFLANPQLDQVHWLLFIIVSVETILWFCFVTFIFSLPSFRAAYRNFSKWIDGISGGIFTVFGIFLIGNR
MLVKININGKKKSVDIEPEEYLVDTLRKVGNLSVKRGCDTGCCGLCTVLIDKKPTLSCATLTLRALDKEITTIEGLENEVKEFSEVLVKEGAEQCGFCSPGFILTVLAMKDELENPTDDEIKHYLTGNLCRCTGYMGQLRAIKTYLEVK
MLVMIDTKRPPVYIDSQVGLNTFFLIRGRYPSLNLFVSFITTVKTLGNNVSRTHGDDAESDRVSNVDENNEAVDEQDNIEDDKTDEDEKEGDNEDGDGYDDYQGDDESMGGSTLDPTIDGSESSDEDCDYNKWNDVIVEEYGMLRRTSFSHQGNSVVCWQSVRTQVSVYLTEITFLTRVTVHQL
MLVQAIMTSPAITVTASASVAEAARLMLDNRISGLPVVGANGALVGIVSEGDFLRRSELSTERKRSWLLEWLTSSGRIAAEYVRTHGRRVEEVMTAPVSAIAPTASLSDAVRLMERQEIKRLPVVEGGRLVGIVARSDLLRALSQALPATSTSAGDAQIQAAIEAALAKQSWSRNGFIHSRVTDGIAELTGTVFDERERLAAKVAVENVAGVTSVKDQLVWVDPYYGIALPPPDAETSQA
MLVTSLVVKPALSTTLKMCTFSTLSAFVLTACSGNAETTNVAEIQHDMGSATAAASPKATAPEGTVLKRSAIDALQTVGNSIGIKIGSHLELGSAADFEKGNTTKVSIDAECFDMTSSSKAFIVACSDGVHSVDPVSGKNSVIAQPTETAHYAVQVSTGEVLVAHRDSNKVEVFNDGEKLSEVATEYGSDQLISVPIEGQADAVVRINNKYTLIQDVNWKESKPGAILRVGKGVGRISAAKQGVVLASDAKKNQFAVYGAKDVIRLHQTSPTGPSPWGITWDNKHDLAWVATTGDNKVTGYDISSGTGSEKSSYNTIENVHNIAVLDDGTLVLASASGAGLQLVKSQTD
